± gives the uncertainty stated by the source.
Test: protein stability index of a GFP-peptide fusion (yeast GPS) (PSI 1-4); higher = more stable; sorted into four equal gates, so the index is relative within each strain
Procedure, shortened: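 Peptides tiling yeast proteins in 17-residue segments were fused downstream of GFP, with Cherry expressed from the same plasmid. As a pooled library in yeast, mid-log cultures grown in leucine-free medium were sorted into four equal gates by GFP/Cherry fluorescence ratio. Gate plasmids were PCR-amplified and Illumina-sequenced, and barcodes linked reads to strains. Each peptide received a protein stability index equal to the sum of each gate's read frequency times its gate number.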

SHLVVPYCPIASITGTG [YMR129W/POM152]
protein stability index (doa10∆): 1.36 ± 0.065 | protein stability index (pdr5∆): 1.37 ± 0.066 | protein stability index (san1∆): 1.33 ± 0.1 | protein stability index (ubr1∆): 1.36 ± 0.03

SHLYKARLDGHDFLFNT [RPN14]
protein stability index (doa10∆): 3.37 ± 0.13 | protein stability index (pdr5∆): 2.88 ± 0.076 | protein stability index (san1∆): 3.13 ± 0.07 | protein stability index (ubr1∆): 2.85 ± 0.047

SHTSLVKIGKFIPHGLK [SRB8]
protein stability index (doa10∆): 1.71 ± 0.053 | protein stability index (pdr5∆): 1.73 ± 0.045 | protein stability index (san1∆): 1.97 ± 0.084 | protein stability index (ubr1∆): 1.55 ± 0.054

SIAEEIPIAIVLKACGI [RET1]
protein stability index (doa10∆): 1.61 ± 0.056 | protein stability index (pdr5∆): 1.49 ± 0.049 | protein stability index (san1∆): 1.31 ± 0.089 | protein stability index (ubr1∆): 1.66 ± 0.049

SIDDHPYNLNLFPNELY [RPC31]
protein stability index (doa10∆): 2.14 ± 0.048 | protein stability index (pdr5∆): 2.53 ± 0.061 | protein stability index (san1∆): 2.69 ± 0.088 | protein stability index (ubr1∆): 2.68 ± 0.064

SIDFRTYRCSIKNLPAD [SRB2]
protein stability index (doa10∆): 2.32 ± 0.074 | protein stability index (pdr5∆): 2.56 ± 0.079 | protein stability index (san1∆): 2.19 ± 0.07 | protein stability index (ubr1∆): 2.27 ± 0.067

SIGRTAQGKEFGVTKAR [RPL17A]
protein stability index (doa10∆): 3.28 ± 0.14 | protein stability index (pdr5∆): 3.44 ± 0.12 | protein stability index (san1∆): 3.05 ± 0.096

SIMPDLYFYRDPEEVEQ [RPS0A]
protein stability index (doa10∆): 2.86 ± 0.082 | protein stability index (pdr5∆): 2.95 ± 0.077 | protein stability index (san1∆): 2.94 ± 0.063 | protein stability index (ubr1∆): 2.85 ± 0.06

SINKNNKEMHTDLGKDI [SSN2]
protein stability index (pdr5∆): 2.07 ± 0.22 | protein stability index (san1∆): 3.21 ± 0.12 | protein stability index (ubr1∆): 3.48 ± 0.14

SINVHSNNITSGLNRAI [RET1]
protein stability index (doa10∆): 3.19 ± 0.1 | protein stability index (pdr5∆): 3.24 ± 0.07 | protein stability index (san1∆): 3.24 ± 0.052 | protein stability index (ubr1∆): 3.17 ± 0.052

SIRAEAVAASSTKTGTP [POP1]
protein stability index (doa10∆): 3.48 ± 0.15 | protein stability index (pdr5∆): 3.21 ± 0.1 | protein stability index (san1∆): 3.08 ± 0.077 | protein stability index (ubr1∆): 2.9 ± 0.069

SKATGAPSANQGDEALS [RTT102]
protein stability index (doa10∆): 3.28 ± 0.12 | protein stability index (pdr5∆): 3.32 ± 0.1 | protein stability index (san1∆): 3.13 ± 0.1 | protein stability index (ubr1∆): 3.14 ± 0.24

SKDLRSVWKPIAAIIGR [IRR1]
protein stability index (doa10∆): 2.56 ± 0.06 | protein stability index (pdr5∆): 2.15 ± 0.032 | protein stability index (san1∆): 2.75 ± 0.049 | protein stability index (ubr1∆): 2.58 ± 0.038

SKEWFQLDDEDFDLLNK [FAS1]
protein stability index (doa10∆): 3.03 ± 0.11 | protein stability index (pdr5∆): 3.31 ± 0.1 | protein stability index (san1∆): 3.28 ± 0.084 | protein stability index (ubr1∆): 3.06 ± 0.08

SKKSTITVRYWLNGKMD [RGR1]
protein stability index (san1∆): 2.28 ± 0.2

SKLSLSRTDAVRCKDCG [RPC10]
protein stability index (doa10∆): 1.77 ± 0.076 | protein stability index (pdr5∆): 1.9 ± 0.064 | protein stability index (san1∆): 1.85 ± 0.13 | protein stability index (ubr1∆): 1.9 ± 0.076

SKMGAPWCVKPEYLAMY [ITC1]
protein stability index (doa10∆): 2.92 ± 0.057 | protein stability index (pdr5∆): 3.23 ± 0.048 | protein stability index (san1∆): 3.1 ± 0.043 | protein stability index (ubr1∆): 3.11 ± 0.058

SKPSTASPSAHTSSSDG [RPN4]
protein stability index (doa10∆): 2.71 ± 0.064 | protein stability index (pdr5∆): 3.04 ± 0.064 | protein stability index (san1∆): 2.66 ± 0.05 | protein stability index (ubr1∆): 2.92 ± 0.045

SKQLSLEEKKKRPNNKT [IRR1]
protein stability index (doa10∆): 2.5 ± 0.11 | protein stability index (pdr5∆): 2.59 ± 0.094 | protein stability index (san1∆): 2.21 ± 0.15 | protein stability index (ubr1∆): 2.79 ± 0.096

SKSAPSKKISNTAAALV [YAR002W/NUP60]
protein stability index (doa10∆): 3.1 ± 0.067 | protein stability index (pdr5∆): 2.97 ± 0.068 | protein stability index (san1∆): 3.12 ± 0.041 | protein stability index (ubr1∆): 3.14 ± 0.048

SKSENPVLSTIAFLVGL [SWI3]
protein stability index (doa10∆): 3.01 ± 0.11 | protein stability index (pdr5∆): 2.54 ± 0.085 | protein stability index (san1∆): 2.26 ± 0.1 | protein stability index (ubr1∆): 2.43 ± 0.057

SKTHKTVSRAYGGSRCA [RPL34A]
protein stability index (doa10∆): 2.68 ± 0.071 | protein stability index (pdr5∆): 2.91 ± 0.054 | protein stability index (san1∆): 2.82 ± 0.064 | protein stability index (ubr1∆): 2.85 ± 0.048

SKVVDDMPSLRLIDLSG [GRR1]
protein stability index (doa10∆): 2.8 ± 0.076 | protein stability index (pdr5∆): 2.91 ± 0.081 | protein stability index (san1∆): 2.72 ± 0.056 | protein stability index (ubr1∆): 2.71 ± 0.078

SKYYPGVIIKVEESGEH [SNU114]
protein stability index (doa10∆): 1.96 ± 0.061 | protein stability index (pdr5∆): 2.08 ± 0.077 | protein stability index (san1∆): 2.28 ± 0.08 | protein stability index (ubr1∆): 2.42 ± 0.073

SLCTVWKPNPSYDVENV [SRB5]
protein stability index (doa10∆): 2.47 ± 0.097 | protein stability index (pdr5∆): 2.03 ± 0.098 | protein stability index (san1∆): 2.08 ± 0.19 | protein stability index (ubr1∆): 1.84 ± 0.082

SLDTSASTINGASIIQV [YML103C/NUP188]
protein stability index (doa10∆): 1.19 ± 0.081 | protein stability index (pdr5∆): 1.44 ± 0.086 | protein stability index (san1∆): 1.29 ± 0.12 | protein stability index (ubr1∆): 1.14 ± 0.093

SLEGCVEMAWIMGFISY [FAS2]
protein stability index (doa10∆): 1.97 ± 0.084 | protein stability index (pdr5∆): 1.86 ± 0.061 | protein stability index (san1∆): 2.35 ± 0.086 | protein stability index (ubr1∆): 2.27 ± 0.078

SLEMVPKDTSAATMTSA [RGR1]
protein stability index (doa10∆): 2.47 ± 0.11 | protein stability index (pdr5∆): 2.77 ± 0.12 | protein stability index (san1∆): 2.73 ± 0.088 | protein stability index (ubr1∆): 2.93 ± 0.088

SLFQLSKLGKNLQTVHF [GRR1]
protein stability index (doa10∆): 2.2 ± 0.047 | protein stability index (pdr5∆): 2.22 ± 0.051 | protein stability index (san1∆): 1.96 ± 0.06 | protein stability index (ubr1∆): 2.43 ± 0.038

SLGIRPCLRKYEEFRDV [RRP43]
protein stability index (doa10∆): 3.27 ± 0.19 | protein stability index (san1∆): 3.21 ± 0.18 | protein stability index (ubr1∆): 2.96 ± 0.076

SLKKVDEIKAQRKEIKD [SMC4]
protein stability index (pdr5∆): 2.94 ± 0.18 | protein stability index (san1∆): 3.29 ± 0.16 | protein stability index (ubr1∆): 3.4 ± 0.25

SLLAMHKHNIMKNENAN [CDC53]
protein stability index (doa10∆): 2.2 ± 0.064 | protein stability index (pdr5∆): 2.58 ± 0.066 | protein stability index (san1∆): 2.82 ± 0.072 | protein stability index (ubr1∆): 3.05 ± 0.046

SLLERHIPRLIPKQLLD [YJL039C/NUP192]
protein stability index (doa10∆): 2.11 ± 0.096 | protein stability index (pdr5∆): 1.38 ± 0.071 | protein stability index (san1∆): 1.23 ± 0.095 | protein stability index (ubr1∆): 1.45 ± 0.076

SLLSLVGHLSILPQQSK [ECM29]
protein stability index (doa10∆): 2.21 ± 0.048 | protein stability index (pdr5∆): 2 ± 0.052 | protein stability index (san1∆): 1.94 ± 0.058 | protein stability index (ubr1∆): 1.64 ± 0.027

SLQDLIYKRGQAGVTKA [SMC2]
protein stability index (doa10∆): 1.58 ± 0.15 | protein stability index (pdr5∆): 1.94 ± 0.094 | protein stability index (san1∆): 1.85 ± 0.15 | protein stability index (ubr1∆): 2.3 ± 0.079

SLQDSIIKQENFNSVND [SSN2]
protein stability index (doa10∆): 2.4 ± 0.11 | protein stability index (pdr5∆): 1.83 ± 0.073 | protein stability index (san1∆): 2.48 ± 0.078 | protein stability index (ubr1∆): 2.73 ± 0.098

SLQSSSQTQLENANAAN [MED2]
protein stability index (doa10∆): 1.96 ± 0.075 | protein stability index (pdr5∆): 2.6 ± 0.056 | protein stability index (san1∆): 2.64 ± 0.091 | protein stability index (ubr1∆): 1.33 ± 0.035

SLSVVAGKWSSKYLIKQ [ECM29]
protein stability index (pdr5∆): 2.19 ± 0.18 | protein stability index (san1∆): 2.15 ± 0.17 | protein stability index (ubr1∆): 2.39 ± 0.095

SLTDVAFFTYDAGVTFN [ECM29]
protein stability index (doa10∆): 2.66 ± 0.065 | protein stability index (pdr5∆): 2.34 ± 0.057 | protein stability index (san1∆): 2.82 ± 0.063 | protein stability index (ubr1∆): 2.6 ± 0.068

SLTRDFEQCCKEKKELQ [YIL149C/MLP2]
protein stability index (doa10∆): 2.87 ± 0.089 | protein stability index (pdr5∆): 3.01 ± 0.089 | protein stability index (san1∆): 3 ± 0.1 | protein stability index (ubr1∆): 3.14 ± 0.11

SLTSKRLISQSLLASKS [RIP1]
protein stability index (ubr1∆): 1.36 ± 0.21

SLVALGIDPQDLKKLNL [CDC53]
protein stability index (doa10∆): 2.84 ± 0.068 | protein stability index (pdr5∆): 2.72 ± 0.066 | protein stability index (san1∆): 2.79 ± 0.049 | protein stability index (ubr1∆): 2.25 ± 0.04

SLYIYYLIKLLGFEVKD [SIR2]
protein stability index (doa10∆): 2.32 ± 0.12 | protein stability index (pdr5∆): 2.13 ± 0.13 | protein stability index (san1∆): 2.31 ± 0.079 | protein stability index (ubr1∆): 2.27 ± 0.15

SMILEAISTDKINPFGF [RRI2]
protein stability index (doa10∆): 2.85 ± 0.076 | protein stability index (pdr5∆): 3.01 ± 0.12 | protein stability index (san1∆): 2.59 ± 0.12 | protein stability index (ubr1∆): 2.92 ± 0.083

SMILGVAASIIPFPDHN [RPB2]
protein stability index (doa10∆): 2.21 ± 0.12 | protein stability index (pdr5∆): 2.41 ± 0.12 | protein stability index (san1∆): 2.27 ± 0.21 | protein stability index (ubr1∆): 2.8 ± 0.094

SMINSVSPTNVMGTPLT [PGD1]
protein stability index (doa10∆): 2.8 ± 0.053 | protein stability index (pdr5∆): 2.94 ± 0.059 | protein stability index (san1∆): 2.73 ± 0.042 | protein stability index (ubr1∆): 2.84 ± 0.047

SMKMELLKKELLTIEPK [SMC2]
protein stability index (doa10∆): 2.85 ± 0.081 | protein stability index (pdr5∆): 2.69 ± 0.064 | protein stability index (san1∆): 2.8 ± 0.07 | protein stability index (ubr1∆): 2.61 ± 0.053

SMNKELIAIVSKLLQTT [NUT1]
protein stability index (doa10∆): 1.88 ± 0.057 | protein stability index (pdr5∆): 1.79 ± 0.096 | protein stability index (san1∆): 2.28 ± 0.14 | protein stability index (ubr1∆): 1.4 ± 0.083

SMTAVPKPLKFLRPTYP [RPN1]
protein stability index (doa10∆): 2.33 ± 0.058 | protein stability index (pdr5∆): 2.21 ± 0.064 | protein stability index (san1∆): 1.85 ± 0.069 | protein stability index (ubr1∆): 2.47 ± 0.064

SNASQMGNTGSGGYDNA [RPB3]
protein stability index (doa10∆): 3.43 ± 0.27 | protein stability index (pdr5∆): 3.32 ± 0.17 | protein stability index (san1∆): 3.52 ± 0.2 | protein stability index (ubr1∆): 2.5 ± 0.15

SNDLDKFFQKKIHLYEK [YGL172W/NUP49]
protein stability index (doa10∆): 2.21 ± 0.057 | protein stability index (pdr5∆): 2.22 ± 0.067 | protein stability index (san1∆): 1.96 ± 0.061 | protein stability index (ubr1∆): 2.32 ± 0.052

SNELIEHFSHFGHIMED [YDL088C/ASM4]
protein stability index (doa10∆): 3.33 ± 0.12 | protein stability index (pdr5∆): 3.09 ± 0.065 | protein stability index (san1∆): 2.94 ± 0.053 | protein stability index (ubr1∆): 2.99 ± 0.045

Reference: the supplement of paper PMC9732359
